The target in test [1] is 14-3-3ε (UniProt P92177). The test is described as follows: GST-14-3-3ε pull-down, anti-GFP blot. As to conditions: reference: wild type Ncd-GFP; sites S96.
The target in test [2] is 14-3-3ε (UniProt P92177). In words: MBP-14-3-3ε pull-down, anti-pS96 blot. As to conditions: reference: unphosphorylated Ncd tail (control not described in text); sites S96.
Test [3] concerns the target 14-3-3ε (UniProt P92177). The test is described as follows: MBP-14-3-3ε amylose pull-down of purified tail. As to conditions: reference: Ncd tail without kinase; sites S96.

With “Ncd (kinesin-14) (from UniProt P20480) S96A”, in test [1], the “binding against the reference” value was “weaker”.

Consider “Ncd (kinesin-14) tail, 58-192 (from UniProt P20480) Ncd tail after PKD2 and cold ATP”, for which the “binding against the reference” value in test [2] is on record as “stronger”.

“Ncd (kinesin-14) tail, 58-192 (from UniProt P20480) PKD2-phosphorylated Ncd tail”: the “binding against the reference” value in test [3] was “stronger”.
